Where a chain is given by its changes, count along the chain named. Numbers in names are those of the source.

Substrate in data set [1]: O=C(O)C(=O)Cc1ccccc1
Kind of data set: purified protein. The data set is classed as biochemical, Thermoactinomyces intermedius. Conditions: reductive amination, Tris-NH4Cl pH 8.0, 1 mM NADH, 37°C (general assay).

Substrate in data set [2]: O=C(O)CCCC(=O)C(=O)O
Kind of data set: purified protein. Conditions: reductive amination, Tris-NH4Cl pH 8.0, 1 mM NADH, 37°C (general assay). The data set is classed as biochemical, Thermoactinomyces intermedius.

Where [3] appears, read: mutant called only 'mutated TiPDH' at the number, A135R by b37-b38 (G114R and double mutant inactive).

B1: TiPDH (phenylalanine dehydrogenase) (Thermoactinomyces intermedius) (protein)
chain: MRDVFEMMDRYGHEQVIFCRHPQTGLKAIIALHNTTAGPALGGCRMIPYASTDEALEDVLRLSKGMTYKCSLADVDFGGGKMVIIGDPKKDKSPELFRVIGRFVGGLNGRFYTGTDMGTNPEDFVHAARESKSFAGLPKSYGGKGDTSIPTALGVFHGMRATARFLWGTDQLKGRVVAIQGVGKVGERLLQLLVEVGAYCKIADIDSVRCEQLKEKYGDKVQLVDVNRIHKESCDIFSPCAKGGVVNDDTIDEFRCLAIVGSANNQLVEDRHGALLQKRSICYAPDYLVNAGGLIQVADELEGFHEERVLAKTEAIYDMVLDIFHRAKNENITTCEAADRIVMERLKKLTDIRRILLEDPRNSARR
notes: His-tagged, pET-Duet1, E. coli BL21(DE3), Ni-NTA purified
For orientation: Km means the substrate concentration at which the rate is half of its maximum. The term kcat denotes the maximal rate divided by the concentration of active sites. Turning to B1, in the data set “purified protein [1]” (natural substrate), the Km turned out to be 0.66 µM and the kcat was determined as 0.3715 s⁻¹. In addition, in “purified protein [2]”, the Michaelis constant (Km) turned out to be 1.771 µM and the turnover number (kcat) came out at 0.00513 s⁻¹.

B2: TiPDH (phenylalanine dehydrogenase) (Thermoactinomyces intermedius; A135R) (protein)
chain: B1 chain with A135R
notes: as for B1
Take B2: the Km was 1.2 µM in the data set “purified protein [1]” and 7.518 µM in “purified protein [2]” (setting [3]). Further, the figures for the kcat in the data set “purified protein [1]” and in the data set “purified protein [2]” (setting [3]) were 0.4307 s⁻¹ and 0.0228 s⁻¹, respectively.

The values are drawn from PMC8967036, “Engineering of phenylalanine dehydrogenase from Thermoactinomyces intermedius for the production of a novel homoglutamate” (PLoS ONE, 2022).
